According to patent US20190040138A1 (AKESO BIOPHARMA, published 2019):
Residue numbers refer to the chain shown, from its start.

B1: humanized antibody 18A10 H2L2 (antibody, V domains shown)
VH: EVQLVQSGGGLVQPGGSLKLSCAASGFTFSSYGMSWVRQAPGKGLDWVATISGGGRDTYYPDSVKGRFTISRDNSKNNLYLQMNSLRAEDTALYYCARQKGEAWFAYWGQGTLVTVSS
VL: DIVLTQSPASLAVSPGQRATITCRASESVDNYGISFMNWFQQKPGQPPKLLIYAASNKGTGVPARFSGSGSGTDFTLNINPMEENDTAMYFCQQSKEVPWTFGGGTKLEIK
notes: also called H2L2 antibody
B2: humanized antibody 18A10 H3L3 (antibody, V domains shown)
VH: B1 VH with N78T, L93V
VL: DIVLTQSPASLAVSPGQRATITCRASESVDNYGISFMNWYQQKPGQPPKLLIYAASNKATGVPARFSGSGSGTDFTLNINPMEANDTAVYFCQQSKEVPWTFGGGTKLEIK
notes: also called H3L3 antibody
B3: humanized antibody 18A10 H1L1 (antibody, V domains shown)
VH: B1 VH with A40T, G42E
VL: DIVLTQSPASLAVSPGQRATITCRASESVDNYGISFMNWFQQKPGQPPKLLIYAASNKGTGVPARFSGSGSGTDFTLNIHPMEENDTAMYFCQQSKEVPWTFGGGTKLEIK
notes: also called H1L1 antibody

biological target: T1, PD-1-mIgGFc fusion protein; assay: ELISA on coated PD-1-mFc
T1 construct: also called PD-1-mFc; PD-1-mIgGFc antigen
T1 sequence (chain, as listed by the source limits assumed): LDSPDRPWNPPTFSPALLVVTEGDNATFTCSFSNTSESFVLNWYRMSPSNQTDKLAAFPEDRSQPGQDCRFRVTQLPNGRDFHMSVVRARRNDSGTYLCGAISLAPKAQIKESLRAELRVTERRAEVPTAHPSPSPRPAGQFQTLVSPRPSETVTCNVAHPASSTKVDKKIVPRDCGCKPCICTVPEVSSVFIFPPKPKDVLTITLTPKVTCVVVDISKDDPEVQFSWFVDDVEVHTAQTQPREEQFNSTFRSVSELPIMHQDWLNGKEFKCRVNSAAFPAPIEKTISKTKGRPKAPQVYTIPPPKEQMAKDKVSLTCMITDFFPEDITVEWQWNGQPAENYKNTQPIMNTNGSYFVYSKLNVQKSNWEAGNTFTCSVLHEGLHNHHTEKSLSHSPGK
Experimental: (§1) An ELISA plate was coated with PD-1-mFc antigen in a concentration of 0.5 μg/ml (50 μl per well) by incubation at 4° C. overnight.
(§2) The absorbance of solution in each well was measured with the microplate reader under a wavelength of 450 nm.

Binder | EC50
B1 | 0.111 nM
B2 | 0.144 nM
B3 | 0.156 nM

biological target: T2, PD-1 antigen stably expressed on the surface of BB007 cells (UniProt Q15116 25-288, limits assumed); assay: flow cytometry on BB007 cells; antibody 5 nM
T2 construct: whole, on cells; also called target protein PD-1 on the surface of the BB007 cell
T2 sequence (Q15116 25-288 limits assumed): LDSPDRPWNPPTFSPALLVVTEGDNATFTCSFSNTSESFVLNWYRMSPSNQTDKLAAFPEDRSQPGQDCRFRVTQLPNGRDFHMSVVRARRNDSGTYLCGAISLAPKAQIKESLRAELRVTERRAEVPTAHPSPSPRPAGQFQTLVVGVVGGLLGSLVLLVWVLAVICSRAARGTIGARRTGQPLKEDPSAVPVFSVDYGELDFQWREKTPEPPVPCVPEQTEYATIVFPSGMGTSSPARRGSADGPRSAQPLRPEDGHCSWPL
Experimental: (§3) The binding efficiencies of H1L1, H2L2 and H3L3 antibodies to PD-1 antigen stably expressed on the surface of cells (named as BB007 cells) were determined by flow cytometry. The BB007 cells were obtained by routine trypsin digestion, and then washed with PBS buffer once, followed by dividing into several tubes, with 2×10⁵ cells per tube. After dilution into concentrations of 20 nM, 10 nM, 5 nM, 1 nM, 0.1 nM and 0 nM with the PBS buffer containing 1% BSA for each of the H1L1, H2L2 and H3L3 antibodies, individual antibodies in a volume of 100 μl were added into individual tubes and incubated on ice for 1 hour. After the mixture was washed with the PBS buffer once, 100 μl FITC-Goat-Anti-Human IgG (in 1:500 dilution) was added for each tube and incubated on ice for 1 hour, followed by addition of 300 μl the PBS buffer for detecting fluorescence signal with a FITC channel on the flow cytometer.

Binder | fluorescence intensity
B1 | 321
B2 | 343
B3 | 252

biological target: T2, PD-1 antigen stably expressed on the …; assay: flow cytometry on BB007 cells; antibody 10 nM
Experimental: as §3

Binder | fluorescence intensity
B1 | 349
B2 | 386
B3 | 316

biological target: T2, PD-1 antigen stably expressed on the …; assay: flow cytometry on BB007 cells; antibody 0.1 nM
Experimental: as §3

Binder | fluorescence intensity
B1 | 19.1
B2 | 21.2
B3 | 19

biological target: T1, PD-1-mIgGFc fusion protein; assay: ELISA on coated PD-1-mFc; antibody 1 µg/ml; replicate 1
Experimental: as §1
(§4) After the ELISA plate was washed with the PBST buffer for three times and gently patted to dryness again, TMB as a developer in 50 μl per well was added for incubation at room temperature for 5 to 10 minutes.
as §2

Binder | absorbance at 450 nm
B1 | 2.36
B2 | 2.14
B3 | 2.47

biological target: T1, PD-1-mIgGFc fusion protein; assay: ELISA on coated PD-1-mFc; antibody 1 µg/ml; replicate 2
Experimental: as §1, §4, §2

Binder | absorbance at 450 nm
B1 | 2.43
B2 | 2.44
B3 | 2.32

biological target: T1, PD-1-mIgGFc fusion protein; assay: ELISA on coated PD-1-mFc; antibody 1 µg/ml diluted 1:9; replicate 1
Experimental: as §1, §4, §2

Binder | absorbance at 450 nm
B1 | 2.18
B2 | 1.95
B3 | 1.96

biological target: T1, PD-1-mIgGFc fusion protein; assay: ELISA on coated PD-1-mFc; antibody 1 µg/ml diluted 1:9; replicate 2
Experimental: as §1
(§5) The ELISA plate coated with the PD-1-mFc antigen was blocked with 1% BSA in the PBS buffer at 37° C. for 2 hours, and washed with 1×PBST buffer containing 1% Tween-20 for three times, with gently patting to dryness.
as §2

Binder | absorbance at 450 nm
B1 | 1.98
B2 | 2.06
B3 | 1.98

biological target: T1, PD-1-mIgGFc fusion protein; assay: ELISA on coated PD-1-mFc; antibody 1 µg/ml diluted 1:81; replicate 1
Experimental: as §1, §5, §2

Binder | absorbance at 450 nm
B1 | 1.04
B2 | 0.928
B3 | 0.883

biological target: T1, PD-1-mIgGFc fusion protein; assay: ELISA on coated PD-1-mFc; antibody 1 µg/ml diluted 1:243; replicate 2
Experimental: as §1, §5, §2

Binder | absorbance at 450 nm
B1 | 0.475
B2 | 0.377
B3 | 0.431

biological target: T1, PD-1-mIgGFc fusion protein; assay: ELISA on coated PD-1-mFc; antibody 1 µg/ml diluted 1:729; replicate 1
Experimental: as §1, §4, §2

Binder | absorbance at 450 nm
B1 | 0.226
B2 | 0.2
B3 | 0.186

biological target: T1, PD-1-mIgGFc fusion protein; assay: ELISA on coated PD-1-mFc; antibody 1 µg/ml diluted 1:729; replicate 2
Experimental: as §1, §4, §2

Binder | absorbance at 450 nm
B1 | 0.224
B2 | 0.185
B3 | 0.163

biological target: T1, PD-1-mIgGFc fusion protein; assay: competitive ELISA on coated PD-1-mIgGFc; competitor PDL1-mIgG2aFc 0.3 µg/ml; antibody 1.5 µg/ml; replicate 1
Experimental: (§6) A 96-well ELISA plate was coated with PD-1-mIgGFc antigen in a concentration of 0.5 μg/ml (50 μl per well) by incubation at 4° C. overnight.
(§7) The 18A10 H1L1, 18A10 H2L2 and 18A10 H3L3 antibodies each were diluted from 3 μg/ml in series by 1:3, with 7 gradient antibody solutions obtained for each antibody. The 7 gradient antibody solutions for each antibody and the blank PBS control (50 μl per well) were respectively added into the blocked 96-well ELISA plate for incubation at room temperature for 10 minutes.
as §2

Binder | absorbance at 450 nm (competition)
B1 | 0.11
B2 | 0.101
B3 | 0.11

biological target: T1, PD-1-mIgGFc fusion protein; assay: competitive ELISA on coated PD-1-mIgGFc; competitor PDL1-mIgG2aFc 0.3 µg/ml; antibody 1.5 µg/ml diluted 1:3; replicate 1
Experimental: as §6, §7
(§8) After the 96-well ELISA plate was washed with the PBST buffer for three times and gently patted to dryness, goat anti-mouse IgG-HRP (H+L) as a secondary antibody in 1:5000 dilution (50 μl per well) was added for incubation at 37° C. for 1 hour.

Binder | absorbance at 450 nm (competition)
B1 | 0.097
B2 | 0.103
B3 | 0.123

biological target: T1, PD-1-mIgGFc fusion protein; assay: competitive ELISA on coated PD-1-mIgGFc; competitor PDL1-mIgG2aFc 0.3 µg/ml; antibody 1.5 µg/ml diluted 1:27; replicate 2
Experimental: as §6, §7, §2

Binder | absorbance at 450 nm (competition)
B1 | 0.903
B2 | 0.986
B3 | 1.04

biological target: T1, PD-1-mIgGFc fusion protein; assay: competitive ELISA on coated PD-1-mIgGFc; competitor PDL1-mIgG2aFc 0.3 µg/ml; antibody 1.5 µg/ml diluted 1:81; replicate 2
Experimental: as §6, §7, §2

Binder | absorbance at 450 nm (competition)
B1 | 1.1
B2 | 1.19
B3 | 1.14

biological target: T1, PD-1-mIgGFc fusion protein; assay: competitive ELISA on coated PD-1-mIgGFc; competitor PDL1-mIgG2aFc 0.3 µg/ml; antibody 1.5 µg/ml diluted 1:243; replicate 1
Experimental: as §6, §7, §8

Binder | absorbance at 450 nm (competition)
B1 | 1.16
B2 | 1.2
B3 | 1.26

biological target: T1, PD-1-mIgGFc fusion protein; assay: competitive ELISA on coated PD-1-mIgGFc; competitor PDL1-mIgG2aFc 0.3 µg/ml; antibody 1.5 µg/ml diluted 1:729; replicate 1
Experimental: as §6, §7, §8

Binder | absorbance at 450 nm (competition)
B1 | 1.2
B2 | 1.28
B3 | 1.35

biological target: T1, PD-1-mIgGFc fusion protein; assay: competitive ELISA on coated PD-1-mIgGFc; competitor PDL1-mIgG2aFc 0.3 µg/ml; antibody 1.5 µg/ml diluted 1:729; replicate 2
Experimental: as §6, §7, §2

Binder | absorbance at 450 nm (competition)
B1 | 1.19
B2 | 1.24
B3 | 1.3
